Results: the supplement of paper PMC10567573

B1: VPS39 (parent)
chain: LRLENNHCHIEESEHVLKKAHKYS
B2: DVL3 (parent)
chain: YNPHPGFPELGYSYGGGSASSQHS

Variants of: B1
Assay: protein stability index of a GFP-peptide fusion (GPS, HEK-293T) (PSI 1-6); higher = more stable
Conditions: c terminus: a fixed tail appended
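Note: lentivirally expressed fusions sorted by FACS into six bins by GFP to DsRed ratio, PSI derived from sequencing read proportions per bin multiplied by bin number.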

In order of falling protein stability index:
1. GRLENNHCHIEESEHVLKKAHKYS  4.6
2. LELENNHCHIEESEHVLKKAHKYS  4.59
3. LPLENNHCHIEESEHVLKKAHKYS  4.55
4. DRLENNHCHIEESEHVLKKAHKYS  4.36
5. TRLENNHCHIEESEHVLKKAHKYS  4.32
6. ERLENNHCHIEESEHVLKKAHKYS  4.29
7. LDLENNHCHIEESEHVLKKAHKYS  4.26
8. LGLENNHCHIEESEHVLKKAHKYS  4.24
9. KRLENNHCHIEESEHVLKKAHKYS  4.2
10. SRLENNHCHIEESEHVLKKAHKYS  4.19
11. LQLENNHCHIEESEHVLKKAHKYS  4.11
12. YRLENNHCHIEESEHVLKKAHKYS  4.1
13. QRLENNHCHIEESEHVLKKAHKYS  4.08
14. HRLENNHCHIEESEHVLKKAHKYS  4.02
15. ARLENNHCHIEESEHVLKKAHKYS  3.91
16. LTLENNHCHIEESEHVLKKAHKYS  3.81
17. PRLENNHCHIEESEHVLKKAHKYS  3.79
18. LALENNHCHIEESEHVLKKAHKYS  3.68
19. NRLENNHCHIEESEHVLKKAHKYS  3.65
20. LSLENNHCHIEESEHVLKKAHKYS  3.62
21. LRAENNHCHIEESEHVLKKAHKYS  3.55
22. LNLENNHCHIEESEHVLKKAHKYS  3.55
23. LHLENNHCHIEESEHVLKKAHKYS  3.55
24. RRLENNHCHIEESEHVLKKAHKYS  3.48
25. IRLENNHCHIEESEHVLKKAHKYS  3.44
26. CRLENNHCHIEESEHVLKKAHKYS  3.29
27. LCLENNHCHIEESEHVLKKAHKYS  3.15
28. WRLENNHCHIEESEHVLKKAHKYS  3.14
29. LKLENNHCHIEESEHVLKKAHKYS  3.12
30. MRLENNHCHIEESEHVLKKAHKYS  2.99
31. LYLENNHCHIEESEHVLKKAHKYS  2.79
32. LMLENNHCHIEESEHVLKKAHKYS  2.66
33. LFLENNHCHIEESEHVLKKAHKYS  2.62
34. LLLENNHCHIEESEHVLKKAHKYS  2.54
35. LILENNHCHIEESEHVLKKAHKYS  2.54
36. LVLENNHCHIEESEHVLKKAHKYS  2.44
37. FRLENNHCHIEESEHVLKKAHKYS  2.3
38. VRLENNHCHIEESEHVLKKAHKYS  2.29
39. LWLENNHCHIEESEHVLKKAHKYS  2.15

Variants of: B2
Assay: as above
Conditions: c terminus: a fixed tail appended

In order of falling protein stability index:
1. YNPHPGFPEEGYSYGGGSASSQHS  4.41
2. ANPHPGFPELGYSYGGGSASSQHS  4.36
3. KNPHPGFPELGYSYGGGSASSQHS  3.94
4. LNPHPGFPELGYSYGGGSASSQHS  3.88
5. YNPHPEFPELGYSYGGGSASSQHS  3.84
6. YNPHPGFPELGYSAGGGSASSQHS  3.77
7. SNPHPGFPELGYSYGGGSASSQHS  3.75
8. YNPHPGFPELGYSHGGGSASSQHS  3.71
9. YNPHPGFPELGYSYGGGSASSTHS  3.69
10. YNPHPGFPELGYSNGGGSASSQHS  3.59
11. YNPHPGFPEDGYSYGGGSASSQHS  3.55
12. YNPHPGFPELGYDYGGGSASSQHS  3.52
13. WNPHPGFPELGYSYGGGSASSQHS  3.49
14. YNPHPGFPELGYSSGGGSASSQHS  3.48
15. YNLHPGFPELGYSYGGGSASSQHS  3.46
16. YNPHPGFPELGYSYGAGSASSQHS  3.45
17. YNPHPGTPELGYSYGGGSASSQHS  3.44
18. YNPHPGFPELEYSYGGGSASSQHS  3.4
19. YNPHPGFPELGYSYGDGSASSQHS  3.4
20. HNPHPGFPELGYSYGGGSASSQHS  3.39
21. YNPHPGFPELGYSDGGGSASSQHS  3.38
22. YNPHPGFPELGYSYDGGSASSQHS  3.37
23. YHPHPGFPELGYSYGGGSASSQHS  3.33
24. YNPHPGFPELQYSYGGGSASSQHS  3.29
25. YNPHPGFPELGMSYGGGSASSQHS  3.29
26. YKPHPGFPELGYSYGGGSASSQHS  3.28
27. YNPHPGFGELGYSYGGGSASSQHS  3.26
28. YNPHPGFPELGYSYGGCSASSQHS  3.22
29. YNPHPGMPELGYSYGGGSASSQHS  3.19
30. YNPHPGFEELGYSYGGGSASSQHS  3.16
31. YNPHPGFPLLGYSYGGGSASSQHS  3.13
32. YNPHPGFPELGYSYGGGSASSQHD  3.13
33. YNPHPGFTELGYSYGGGSASSQHS  3.11
34. YRPHPGFPELGYSYGGGSASSQHS  3.09
35. YNPHPGFPELGYSYGGGSADSQHS  3.09
36. YNPHPGFPELGFSYGGGSASSQHS  3.09
37. YNTHPGFPELGYSYGGGSASSQHS  3.08
38. YGPHPGFPELGYSYGGGSASSQHS  3.06
39. YNQHPGFPELGYSYGGGSASSQHS  3.05
40. YNPHPGFPEKGYSYGGGSASSQHS  3.05
41. YNPHPGFPEPGYSYGGGSASSQHS  3.04
42. YNPHPGFPELGYSYGGGSRSSQHS  3.04
43. YNPHPGFPELMYSYGGGSASSQHS  3.03
44. YNMHPGFPELGYSYGGGSASSQHS  3.01
45. YNPHPGFPELGYSYGGGSDSSQHS  3.01
46. YNPHPGFPELGTSYGGGSASSQHS  3.01
47. YNPHPGFPELGYSYGGGSASSQRS  3
48. YNPHPGFPELGYSYGGGSASSPHS  2.98
49. YNPHPGFPELGYSKGGGSASSQHS  2.95
50. YNPHPGFPELGYSYGGGSKSSQHS  2.94
51. YNPHPNFPELGYSYGGGSASSQHS  2.93
52. YNPHPGFPELGYSYGGGSESSQHS  2.92
53. YNPHPGFPELGYSYKGGSASSQHS  2.91
54. YNPHPGFPELGYSYGGGSASSQIS  2.9
55. YNPHPGFPELGYSYGGGSASMQHS  2.89
56. YNPHPGFPELGYSYGGGSASPQHS  2.88
57. YNPHPGFPELGYSYGGQSASSQHS  2.87
58. YNPHPGFPELGASYGGGSASSQHS  2.87
59. YNPHPGRPELGYSYGGGSASSQHS  2.86
60. YNPHPGFPELDYSYGGGSASSQHS  2.82
61. YNPRPGFPELGYSYGGGSASSQHS  2.8
62. YNNHPGFPELGYSYGGGSASSQHS  2.79
63. YNPHPGFPELGYSYGGGSASQQHS  2.79
64. YNPHPGFPELGYSYGGGSASSQPS  2.79
65. YNPHPGFPELGYSYGPGSASSQHS  2.74
66. YNPHPGFPELGYSYGGGSASSHHS  2.73
67. YNPHPGFPELGYSYGGASASSQHS  2.73
68. YNPHPGFPELGYSYGGGSARSQHS  2.73
69. YNPHPGFPELNYSYGGGSASSQHS  2.72
70. YNPHPGFPELGYSYGGDSASSQHS  2.72
71. YNPHPGFPELSYSYGGGSASSQHS  2.71
72. YNPHPVFPELGYSYGGGSASSQHS  2.7
73. YNPHPSFPELGYSYGGGSASSQHS  2.69
74. YNPHPGYPELGYSYGGGSASSQHS  2.68
75. YNPHPGFQELGYSYGGGSASSQHS  2.67
76. YNPHPGFPELGYSYGGGSAQSQHS  2.66
77. YNPHPGFPELGYSYGGGSAKSQHS  2.65
78. YNPHPGFPELGYSIGGGSASSQHS  2.64
79. YNPHPGFPELGYSYGRGSASSQHS  2.63
80. YNPHPGFPELGYSYIGGSASSQHS  2.63
81. YNPHPGFPELGYSYGGGSASSQAS  2.62
82. YNPHPGFPELGYSYGGNSASSQHS  2.6
83. YNPHPGAPELGYSYGGGSASSQHS  2.6
84. YNPHLGFPELGYSYGGGSASSQHS  2.59
85. YNPHPGFPELGYSYGGGSAHSQHS  2.59
86. YNPHPGSPELGYSYGGGSASSQHS  2.59
87. YNPHPGFPELGYHYGGGSASSQHS  2.59
88. YNPHPGFPELGYSYMGGSASSQHS  2.57
89. YNPHPGFPELGYSYGGGSASSQHI  2.56
90. YNPHPGFPELGYSYGGGSASKQHS  2.54
91. YNPHPGFPELGYSYFGGSASSQHS  2.54
92. YNPHPGFCELGYSYGGGSASSQHS  2.54
93. YNPHPGFPELGYSYGGGSTSSQHS  2.53
94. YNPHPGFPCLGYSYGGGSASSQHS  2.5
95. YNPHPGFPELGYSYGGGIASSQHS  2.49
96. YNPHPLFPELGYSYGGGSASSQHS  2.48
97. YWPHPGFPELGYSYGGGSASSQHS  2.48
98. YNPHPGFPELHYSYGGGSASSQHS  2.46
99. YNPHPGFPNLGYSYGGGSASSQHS  2.46
100. YNPHFGFPELGYSYGGGSASSQHS  2.44
101. YNPHPGFPELGYSYGGGSASSQHM  2.44
102. YNPHPGFPELGYSYGGGRASSQHS  2.44
103. YNPHPFFPELGYSYGGGSASSQHS  2.42
104. YNPHPGFPELGYSYGGGSASSQHV  2.41
105. YNPHPGFPELGYSFGGGSASSQHS  2.4
106. YNPHPGFPELGYSYGGGSASSYHS  2.4
107. YNPHPGFPELGYSYGGGSYSSQHS  2.4
108. YNPHTGFPELGYSYGGGSASSQHS  2.36
109. CNPHPGFPELGYSYGGGSASSQHS  2.33
110. YNPHPGFYELGYSYGGGSASSQHS  2.33
111. YNPHPGFPELGYSYGGGSASSQHH  2.33
112. YNPHPGFPELGYSYGYGSASSQHS  2.32
113. YNPHPGFPELGYSYHGGSASSQHS  2.3
114. YNPHPGFPELPYSYGGGSASSQHS  2.29
115. YNPPPGFPELGYSYGGGSASSQHS  2.29
116. YNPHPGFPELGYSYGGGSASSAHS  2.23
117. YNPHPGFPELGYSYGGYSASSQHS  2.23
118. YNPHPGFFELGYSYGGGSASSQHS  2.23
119. YNPHPGFPELGYTYGGGSASSQHS  2.23
120. YNGHPGFPELGYSYGGGSASSQHS  2.19
121. YNPHPGFPELGWSYGGGSASSQHS  2.19
122. YNPHPGFPELGYYYGGGSASSQHS  2.19
123. FNPHPGFPELGYSYGGGSASSQHS  2.16
124. YNPHPGFPGLGYSYGGGSASSQHS  2.16
125. YNPHPGFPELGYSYGGHSASSQHS  2.15
126. YNPHPGFPELGYSYGGLSASSQHS  2.14
127. YNPHPGWPELGYSYGGGSASSQHS  2.14
128. YNPHPGFPELGYSYGGGSASSQHF  2.14
129. YNPHPGFPELGYLYGGGSASSQHS  2.13
130. YNPHPGFPDLGYSYGGGSASSQHS  2.11
131. YNPHPGFPELGYSYCGGSASSQHS  2.11
132. YNPHPGFPELGYSYGGGSASCQHS  2.1
133. YNPHPGFPELGYSYGGGSFSSQHS  2.09
134. YNPAPGFPELGYSYGGGSASSQHS  2.06
135. YNPHPGFPELGYSYGGGSASSWHS  2.06
136. YNPHPGFPELGYSYGWGSASSQHS  2.04
137. YNPHPGFPELGLSYGGGSASSQHS  2.03
138. YNPHPGFPELGYSYGGGSASSQHW  2.03
139. YNPGPGFPELGYSYGGGSASSQHS  2.01
140. YPPHPGFPELGYSYGGGSASSQHS  1.97
141. YNPHPGFPELGYSYGGISASSQHS  1.96
142. YNPHPGFPELGYSYGFGSASSQHS  1.79
143. YNPHPGFPELGYSYGGGSAYSQHS  1.79
144. YNPHPGFPELGYSYGGGSASSQHT  1.78
145. YNPHPWFPELGYSYGGGSASSQHS  1.74
146. YNPHPGFIELGYSYGGGSASSQHS  1.71
147. YNPHPGFPELGYVYGGGSASSQHS  1.71
148. YNPHPGFPSLGYSYGGGSASSQHS  1.59
149. YNPHPGFPEWGYSYGGGSASSQHS  1.3
